The values that follow come from patent publication US20240025996A1 (FRED HUTCHINSON CANCER CENTER, published 2024).

For the test, the target named is T1, soluble ROR1 ectodomain (UniProt Q01973 30-406).
T1 construct: extracellular domain; also called ROR1-A647
Put plainly: method not stated in the legend (FIGS. 1A-1C).

T1 sequence (Q01973 30-406 limits assumed): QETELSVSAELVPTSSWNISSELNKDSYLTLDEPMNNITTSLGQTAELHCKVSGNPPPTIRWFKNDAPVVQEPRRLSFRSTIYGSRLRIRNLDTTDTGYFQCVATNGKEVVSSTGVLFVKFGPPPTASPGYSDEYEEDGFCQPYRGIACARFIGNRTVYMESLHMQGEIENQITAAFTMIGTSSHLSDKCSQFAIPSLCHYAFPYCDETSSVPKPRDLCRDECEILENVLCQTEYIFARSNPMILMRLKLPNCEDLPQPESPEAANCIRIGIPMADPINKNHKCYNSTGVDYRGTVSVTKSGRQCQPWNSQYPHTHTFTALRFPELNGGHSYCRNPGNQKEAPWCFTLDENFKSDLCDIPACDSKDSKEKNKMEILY

B1: Nb14 WT (VHH)
VHH: QVKLVQSGGGLVQTGGSLRLSCAASEITFDMYSMGWYREAPGKARDAVASITNRGNTYYADSVKGRFTISRDNAKKTMYLQMNSLKPEDTAVYYCNVYRTGFSDYWGQGTQVTVSS
notes: also called free Nb14
Molecule B1 gave a dissociation constant (Kd) of 2 nM.

B2: Nb11 WT (VHH)
VHH: QVKLVQSGGGLVQAGGSLRLSCAASGSIFSSASMGWYRQAPGKPREQVASITRDGNTYYEDDVKGRFTISRDNARSTGYLQMNSLTPEDTGVYYCNVYQLGFYDKWGQGTQVIVSS
notes: also called free Nb11
In turn, B2 returned a Kd of 2 nM.

The term Kd denotes the equilibrium constant for the complex coming apart. Read a low Kd as higher affinity.
